In the nanobody polyreactivity screen of Harvey et al. (2022):

Assay: yeast display, Sf9 membrane polyspecificity reagent, FACS + sequencing; frameworks hold sequencing errors
Procedure, shortened: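 After 36–48 hours of galactose induction, yeast (Saccharomyces cerevisiae BJ5465) displaying a synthetic nanobody library were stained at 4 °C for 1 hour with 10% biotinylated, detergent-solubilized Sf9 membrane reagent. Streptavidin microbeads enriched the stained cells before FACS sorting into low and high (top ~1%) gates on anti-HA and streptavidin fluorescence. Each clone's polyreactivity label reflects its gate of origin.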

Row | Sequence | polyreactivity (PSR sort gate)
1 | QVQLVESGGGLVQAGGSLRLSCAASGSIFVYYAMGWYRQAPGKERELVAAISKTGGRTYYADSVKGRFTISRDNAKNTVYLQMNSLKPEDTAVYYCAARYTIRYKRYDYWGQGTQVTVSS | high polyreactivity
2 | QVQLVESGGGLVQAGGSLRLSCAASGSIFVYYGMGWYRQAPGKEWELVAAMSSGGSSHYADSVKGRFTISRVTAKNSVYLQMNSLKPEDTAVYYCPADGFFWQRSYTRYYYWGQGSQVTVSS | low polyreactivity
3 | QVQLVESGGGLVQAGGSLRLSCAASGSIFVYYVMGWYRQAPGKERELVAAISSGGRTYYADSVKGRFTISRDNAKNTVYLQMNSLKPEDTAVYYCAARPIRPASEVNYWGQGTQVTVSS | low polyreactivity
4 | QVQLVESGGGLVQAGGSLRLSCAASGSIFWANAMGWYRPAPGKERELVAAINFRATITYYPASVKGRFTISRDNAKNTVYLQMNSRKPEDTAVYYCAKAQAQRYSFYYWGQGTQVTVSS | high polyreactivity
5 | QVQLVESGGGLVQAGGSLRLSCAASGSIFWFNAMGWYRQAPGKEREFVASISRSGGTTYYADSVKGRFTISRDTAKNTVYLQMYSLKPEDTAVYYCNARAYGNGLGTGYFGKHRYDYWGQGTQVTVSS | low polyreactivity
6 | QVQLVESGGGLVQAGGSLRLSCAASGSIFWFNAMGWYRQAPGKERELVAAINSSGGRTYYADSVKGRFTISRDNAKNTVYLQMNSLKPEDTAVYYCNALLWGNPASYGYWGQGTQVTVSS | high polyreactivity
7 | QVQLVESGGGLVQAGGSLRLSCAASGSIFWFNAMGWYRQAPGKERELVAAITITGGSTYYADSVKGRFTISRDNAKNTVYLQMNSLKPEDTAVYYCAAGTGSRDDYWGQGTQVTVSS | high polyreactivity
8 | QVQLVESGGGLVQAGGSLRLSCAASGSIFWGNAMGWYRQAPGKERELVAAIRRGTSTYYADSVKGRFTISRDNAKNTVYLQMNSLKPEDTAVYYCAAEGWTTPTPTSDDNQWWYDYWGQGTQVTVSS | high polyreactivity
9 | QVQLVESGGGLVQAGGSLRLSCAASGSIFWGNDMGWYRQAPGKERELVAGIRNSGTSTYYADSVKGRFTISRDHAKNTVYLQMNSLKPEDTAVYYCAAADGRQYSRYYWRGHDYWGQGTQVTVSS | low polyreactivity
10 | QVQLVESGGGLVQAGGSLRLSCAASGSIFWGTAMGWERQAPGKERELVAAISWSGGSTYYADSVKGRFTISRDNAKNTVDLQMHSLKPEDTAVYYCAARFKRVGSIPYYYWGQGTQVTVSS | high polyreactivity
11 | QVQLVESGGGLVQAGGSLRLSCAASGSIFWGYAMGWYRQAPGKERELVAAISSSGGNTYYADSVKGRFTISRDNAKNTVYLQMNSLKPEDTAVYYCAATPEFYGGKITDVYSQYGYWGQGSQVTVSS | low polyreactivity
12 | QVQLVESGGGLVQAGGSLRLSCAASGSIFWINAMGWCRQAPGKEREFVADIDVSGGSTYYADSVKGRFTISRDNAKNTVYLQMNSLKPEDTAVYYCAADDYWAYLYYKTSEYYYWGQGTQVTVSS | low polyreactivity
13 | QVQLVESGGGLVQAGGSLRLSCAASGSIFWLYAMGWYRQAPGKERELVATISSTGSTDYADSVKGRFTISRDNAKNTVYLQMNSLKPEDTAVYYCATDVFYSIFTPSPFEYDYWGQGTQVTVSS | high polyreactivity
14 | QVQLVESGGGLVQAGGSLRLSCAASGSIFWNNAMGWSRQAPGKERELVAAISKSGTRTYYADSVKGRFTISRDNAKNTVYLQMNSLKPEDTAVYYCNALLRDSGTYAGDDYWGQGTQVTVSS | high polyreactivity
15 | QVQLVESGGGLVQAGGSLRLSCAASGSIFWNNAMGWYRQAPGKEREFVATITWSGDSTYYADSVKGRFTISRDNAKNTVYLQMNSLKPEDTAVYYCAALLDYSVADLYSHHVSRYYYWGQGTQVTVSS | low polyreactivity
16 | QVQLVESGGGLVQAGGSLRLSCAASGSIFWQNTMGWYRQAPGKERELVAAISWSGGRTYYADSVKGRFTISRDNAKNTVSLPMNSLKPEDTAVYYCNKLLSQRRYHSEMDYWGQGTQVTVSS | high polyreactivity
17 | QVQLVESGGGLVQAGGSLRLSCAASGSIFWRNAMGWYRQAPGKERELVAAITSGGTTNYADSVKGRFTISRDNAKNTVYLQMNSLKPEDTAVYYCATGASYLRRYDHPHSDVDYWGQGTQVTVSS | low polyreactivity
